From paper PMC5760735, “Isolation and Characterization of Key Genes that Promote Flavonoid Accumulation in Purple-leaf Tea (Camellia sinensis L.)” (Scientific Reports, 2018)

Legend:
Conditions in all cases: 5 mM UDP-glucose, phosphate buffer pH 7.5, 30 °C, 10 min
purified protein = substrate: O=c1c(O)c(-c2cc(O)c(O)c(O)c2)oc2cc(O)cc(O)c12; test: purified protein
[1] = substrate: O=c1c(O)c(-c2ccc(O)c(O)c2)oc2cc(O)cc(O)c12; test: glucosyltransferase assay of recombinant enzyme, HPLC; assay type: biochemical, Camellia sinensis
[2] = substrate: O=c1c(O)c(-c2ccc(O)cc2)oc2cc(O)cc(O)c12; test: as above; assay type: biochemical, Camellia sinensis

B1: CsUGT72AM1 (Camellia sinensis) (protein)
chain: MDSSNSKPHVALLSSPGIGHLIPVLELRKRLVANHGFHVTVFSVTTTTAPPPKPKTATTTTTLDLVDIFELHVDISGLVNPNAPFVERVGVTMRESLPILRQAISGMDPRPTTLVVDIFGTDAMKIADEFDMSKYVFITTSAWVFAFCVFVPTLDEEVEGEYVDLQEPVKIPGCNPVRVEDLVDPMLDRRSQQYFEFLRTCKGYLSFDGVLVNTWEDLERPTLKAFRENGLLKQVLKAPIYPIGPLVKRVGSSGSRSELLEWLDLQPCQSVLYVSFGSAGTVSAKQITELAWGLELSQQRFIWVLRPPMEKGGPHDLNDCDDVANYLPDGFLSRTHKLGLVVPTWAPQEEILGHRSVGGFLSHGGWNSSLESILSGVPMIMWPLYAEQKMNAAMVVEELEVGVRVVQLSEVVEREEIAKFVRMVIEGREGKAMRTRVKELQCSGERALIENGSSYESMCELARDFEMKLKY
notes: cDNA in pMAL-c2X (MBP fusion), expressed in E. coli Novablue (DE3), purified
**Q.** Which results are given for B1?
**A.** Km (purified protein): 113.15 µM; Km [1]: 94.99 µM; Km [2]: 71.81 µM
